Residue numbers refer to the chain shown, from its start.
Legend:
[1] = target: T1, chymase (recombinant, SIGMA) (UniProt P23946); experiment: inhibition; conditions: 2'-F pyrimidines (U, C); negative control pool, no inhibition
T1 sequence: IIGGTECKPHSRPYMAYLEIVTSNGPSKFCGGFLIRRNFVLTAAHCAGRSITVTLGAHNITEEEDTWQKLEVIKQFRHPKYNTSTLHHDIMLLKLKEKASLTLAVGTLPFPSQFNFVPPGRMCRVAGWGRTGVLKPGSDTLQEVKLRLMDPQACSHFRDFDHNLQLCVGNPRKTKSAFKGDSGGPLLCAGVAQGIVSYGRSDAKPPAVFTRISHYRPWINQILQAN

[2] = target: T2, chymase (recombinant, SIGMA) (UniProt P23946 P23946:22-247); experiment: inhibition; Suc-AAPF-MCA substrate, 0.005 ug chymase, single measurement; conditions: tags: SIGMA recombinant
T2 sequence: T1 sequence
Protocol: (§1) The assay was performed using a 96-well plate (F16 Black Maxisorp Fluoronunc, manufactured by Nunc), with a reaction mixture volume of 100 μL, in solution C as a buffer solution. Here, the solution C is a mixed solution of 145 mM sodium chloride, 5.4 mM potassium chloride, 1.8 mM calcium chloride, 0.8 mM magnesium chloride, 20 mM Tris (pH 7.6), and 0.05% Tween20. First, nucleic acid was serially diluted in solution C to obtain 50 μL solutions. After 10 μL of the 1 mM substrate prepared in solution C was added thereto, the plate was set to the microplate reader SpectraMax190 (manufactured by Molecular Devices Corporation), and incubated at 37° C. for 5 minutes. Separately, 0.05 μg of chymase (recombinant, manufactured by SIGMA) was diluted in solution C to obtain a 40 μL chymase solution, and incubated at 37° C. for 5 minutes. The chymase solution was added to the mixture of the nucleic acid and substrate to initiate an enzyme reaction. The final chymase concentration in the reaction mixture was 16.7 nM, the final substrate concentration being 100 μM. The plate containing the reaction mixture was set to the microplate reader SpectraMax190 (manufactured by Molecular Devices Corporation), and examined for time-dependent changes in the fluorescence intensity at 37° C. for 5 minutes (or 30 minutes) (excitation wavelength 380 nm, detection wavelength 460 nm). A linear approximation of the increase in the fluorescence of the AMC released from the substrate by chymase activity was generated, and its slope was taken as the initial velocity […]. For control, samples were treated and analyzed in the same manner in two cases: use of a 30N (a nucleotide of 30 consecutive bases represented by N; N is A, G, C or T) nucleic acid pool (negative control), and use of chymostatin, a known chymotrypsin-like serine protease inhibitor (positive control). Taking the initial reaction velocity without the nucleic acid and inhibitor (V₀) as a 100% enzyme activity, the inhibitory rate of each test substance was calculated using the following equation: […]
In the evaluation of SEQ ID NO: 21-25, a method similar to the evaluation method of inhibitory activity against chymase shown in Example 1 by using MCA as a substrate except that the amount chymase was changed from 0.05 μg to 0.005 μg was used for measurement.

[3] = target: T2, chymase (recombinant, SIGMA); experiment: inhibition; Suc-AAPF-MCA substrate, 37 C; conditions: tags: SIGMA recombinant
Protocol: as §1, with “By detecting the fluorescence of this AMC, the enzyme activity of chymase can be determined. The assay” for “The assay”

[4] = target: T3, chymase (native, human skin mast cell) (Homo sapiens, UniProt P23946 P23946:22-247); experiment: inhibition; angiotensin I substrate; table prints length 32 though SEQ 33 is 31 nt; conditions: tags: Calbiochem Human Skin
T3 sequence: T1 sequence
Protocol: (§2) The total volume of solution for an enzyme reaction in the assay was set to 50 μL, and the reaction was performed in solution C buffer. At first, native (manufactured by Calbiochem) was diluted with solution C to give 5 μL thereof. Here, the native is chymase purified from human skin mast cell. The nucleic acid was serially diluted with solution C at a concentration of 0.0027-2 μM to give 25 μL thereof. The chymase solution (5 μL) and the nucleic acid solution (25 μL) were mixed, and the mixture was incubated at 37° C. for 5 min. On the other hand, […] angiotensin I (manufactured by PEPTIDE […], INC.) was prepared in solution C to give 20 μL thereof, which was incubated at 37° C. for 5 min. The angiotensin I solution was added to a mixture of chymase and nucleic acid to start an enzyme reaction. The final chymase concentration of the reaction solution was 0.5 nM, and the final substrate concentration was 50 μM. After reaction at 37° C. for 90 min, ice-cooled 30% trichloroacetic acid solution (25 μL) was added to quench the reaction. The whole mixture was centrifuged at 4° C., 14000 rpm for 10 min, and the supernatant (30 μL) was used for the next fluorescence induction reaction.

[5] = target: T2, chymase (recombinant, SIGMA); experiment: inhibition; Suc-AAPF-MCA substrate, 37 C, 1.8 mM Ca, 0.8 mM Mg, pH 7.6; conditions: tags: SIGMA recombinant
Protocol: By detecting the fluorescence of this AMC, the enzyme activity of chymase can be determined. The assay was performed using a 96-well plate (F16 Black Maxisorp Fluoronunc, manufactured by Nunc), with a reaction mixture volume of 100 μL, in solution C as a buffer solution. Here, the solution C is a mixed solution of 145 mM sodium chloride, 5.4 mM potassium chloride, 1.8 mM calcium chloride, 0.8 mM magnesium chloride, 20 mM Tris (pH 7.6), and 0.05% Tween20. First, nucleic acid was serially diluted in solution C to obtain 50 μL solutions. After 10 μL of the 1 mM substrate prepared in solution C was added thereto, the plate was set to the microplate reader SpectraMax190 (manufactured by Molecular Devices Corporation), and incubated at 37° C. for 5 minutes. […] The plate containing the reaction mixture was set to the microplate reader SpectraMax190 (manufactured by Molecular Devices Corporation), and examined for time-dependent changes in the fluorescence intensity at 37° C. for 5 minutes (or 30 minutes) (excitation wavelength 380 nm, detection wavelength 460 nm). A linear approximation of the increase in the fluorescence of the AMC released from the substrate by chymase activity was generated, and its slope was taken as the initial velocity […]. […]

[6] = target: T3, chymase (native, human skin mast cell); experiment: inhibition; angiotensin I substrate; second G of GGGG 2'-OMe; conditions: tags: Calbiochem Human Skin
Protocol: as §2, with “The angiotensin I solution was added to a mixture of chymase and nucleic acid to start an enzyme reaction. The final chymase concentration of the reaction solution was 0.5 nM, and the final substrate concentration was 50 μM. After reaction at 37° C. for 90 min, ice-cooled 30% trichloroacetic acid solution (25 μL) was added to quench the reaction.” left out
(§3) The above-mentioned supernatant (30 μL) was added to a 96 well plate (black, manufactured by Costar), a solution (15 μL) of 2% o-phthalaldehyde (manufactured by SIGMA) in methanol and 0.3M NaOH solution (170 μL) were added to each well, and the mixture was incubated at room temperature for 10 min. […] The plate was set on a microplate reader SpectraMax190 (manufactured by Molecular device) and the fluorescence intensity was measured at an excitation wavelength of 355 nm and a fluorescence wavelength of 460 nm. […]

[7] = target: T3, chymase (native, human skin mast cell); experiment: inhibition; angiotensin I substrate, 37 C; conditions: tags: Calbiochem Human Skin
Protocol: as §2, with “The angiotensin I solution was added to a mixture of chymase and nucleic acid to start an enzyme reaction. The final chymase concentration of the reaction solution was 0.5 nM, and the final substrate concentration was 50 μM. After reaction at 37° C. for 90 min, ice-cooled 30% trichloroacetic acid solution (25 μL) was added to quench the reaction.” left out
as §3

[8] = target: T3, chymase (native, human skin mast cell); experiment: inhibition; angiotensin I substrate, 37 C; conditions: tags: Calbiochem Human Skin; remark: listed apart in the source
Protocol: Whether the nucleic acids shown by SEQ ID NO: 9 and 10 inhibit the enzyme activity of chymase was determined by the following method. Angiotensin I is converted by chymase to angiotensin II, during which a peptide fragment His-Leu is released. Since the peptide His-Leu is fluorescently derivatized by o-phthalaldehyde, its fluorescence intensity can be quantitatively measured.
The total volume of solution for an enzyme reaction in the assay was set to 50 μL, and the reaction was performed in solution C buffer. At first, native (manufactured by Calbiochem) was diluted with solution C to give 5 μL thereof. Here, the native is chymase purified from human skin mast cell. […] The whole mixture was centrifuged at 4° C., 14000 rpm for 10 min, and the supernatant (30 μL) was used for the next fluorescence induction reaction.
The above-mentioned supernatant (30 μL) was added to a 96 well plate (black, manufactured by Costar), a solution (15 μL) of 2% o-phthalaldehyde (manufactured by SIGMA) in methanol and 0.3M NaOH solution (170 μL) were added to each well, and the mixture was incubated at room temperature for 10 min. […] The plate was set on a microplate reader SpectraMax190 (manufactured by Molecular device) and the fluorescence intensity was measured at an excitation wavelength of 355 nm and a fluorescence wavelength of 460 nm.

For “UCACACUAGCACGCAUAGGNNNNNNNNNNNNNNNNNNNNNNNNNNNNNNCAUCUGACCUCUCUCCUGCUCCC [30N nucleic acid pool]”, the IC50 [1] was over 500 nM.

GGCAGAUGAUCGGACAUAACAGUAGAUAGAGUUAAAACUGGGGUGUCAA (ssRNA, 2'-F pyrimidines (inferred)) [SEQ ID NO: 23] showed an IC50 [2] of 7.8 nM.

B1: SEQ ID NO: 5 (ssRNA)
RNA: GGGAGCAGGAGAGAGGUCAGAUGAUGACCGAUUAUAGGUAACCACUUAGGGGGCCUAUGCGUGCUAGUGUGA
modifications: 2'-F pyrimidines (U, C); purines 2'-OH
For B1, the IC50 [3] was 7 nM.

B2: SEQ ID NO: 8 (ssRNA)
RNA: B1 RNA with G26U, A27G, C28A, U32C, A44U, C45U, U47A, A48C
modifications: 2'-F pyrimidines (U, C); purines 2'-OH
B2 gave an IC50 [3] of 35 nM.

AUGAUCGGACAUAACUAAUUAGGGGUGUCAA (ssRNA, 2'-F pyrimidines (U, C); purines 2'-OH) [SEQ ID NO: 33] gave an IC50 [4] of 0.21 nM.

B3: SEQ ID NO: 4 (ssRNA)
RNA: GGGAGCAGGAGAGAGGUCAGAUGUAACUCUAUUGAGGGGCAUCAGCACAGUAGCCUAUGCGUGCUAGUGUGA
modifications: 2'-F pyrimidines (U, C); purines 2'-OH
For B3, the IC50 [3] was 10.8 nM.

B4: SEQ ID NO: 22 (ssRNA)
RNA: GGCAGAUGAUCGGACAUAACAGUUAGAUAGAGUUAAAAACUGGGGUGUCAA
modifications: 2'-F pyrimidines (inferred)
B4 was tested, and the IC50 [2] was 5 nM.

B5: SEQ ID NO: 1 (ssRNA)
RNA: GGGAGCAGGAGAGAGGUCAGAUGAGCAUGCUUUUUGGUAACCGAUAAUGGGGGCCUAUGCGUGCUAGUGUGA
modifications: 2'-F pyrimidines (U, C); purines 2'-OH
Molecule B5 has an IC50 [5] of 41 nM.

B6: SEQ ID NO: 6 (ssRNA)
RNA: B5 RNA with A24U, G25C, C26A, A27U, U28G, G29A, U33A, U35A
modifications: 2'-F pyrimidines (U, C); purines 2'-OH
For B6, the IC50 [3] was 5.5 nM.

B7: SEQ ID NO: 17(1) (ssRNA)
RNA: GAUGAUCGGACAUAACAUUGUUGGGGUGUCAA
modifications: GAU(F)GAU(F)C(F)GGAC(F)AU(F)AAC(F)AU(F)U(F)GU(F)U(F)G(M)G(M)GGU(F)GU(F)C(F)AA (F=2'-F, M=2'-OMe)
B7 was tested, and the IC50 [6] was 44.4 nM.

B8: SEQ ID NO: 17(3) (ssRNA)
RNA: B7 RNA
modifications: idT-G(M)A(M)U(F)G(M)A(M)U(F)C(F)G(M)G(M)A(M)C(F)A(M)U(F)AAC(F)AU(F)U(F)G(M)U(F)U(F)GG(M)G(M)G(M)U(F)G(M)U(F)C(F)A(M)A(M)-idT (F=2'-F, M=2'-OMe)
Work on B8 yielded an IC50 [6] of 5.66 nM.

For GGCAGAUGAUCGGACAUAACAAGAUAGAGUUAAAUGGGGUGUCAA (ssRNA, 2'-F pyrimidines (inferred)) [SEQ ID NO: 25], the IC50 [2] was 5.8 nM.

B9: SEQ ID NO: 21 (ssRNA)
RNA: GGCAGAUGAUCGGACAUAACAGGUUAGAUAGAGUUAAAAACCUGGGGUGUCAA
modifications: 2'-F pyrimidines (inferred)
For B9, the IC50 [2] was 5.7 nM.

GGCAGAUGAUCGGACAUAACAUAGAUAGAGUUAAAAUGGGGUGUCAA (ssRNA, 2'-F pyrimidines (inferred)) [SEQ ID NO: 24] was tested, and the IC50 [2] was 3.7 nM.

B10: SEQ ID NO: 2 (ssRNA)
RNA: GGGAGCAGGAGAGAGGUCAGAUGAUCGGACAUAACAUUGUUGGGGUGUCAAGGCCUAUGCGUGCUAGUGUGA
modifications: 2'-F pyrimidines (U, C); purines 2'-OH
B10 was tested, and the IC50 [3] was 31 nM and the IC50 [7] was 10 nM.

B11: SEQ ID NO: 7 (ssRNA)
RNA: GGGAGCAGGAGAGAGGUCAGAUGUUUGGUAGUAACUGGAAUAGGGGCUACAGGCCUAUGCGUGCUAGUGUGA
modifications: 2'-F pyrimidines (U, C); purines 2'-OH
B11 gave an IC50 [3] of 52 nM.

B12: SEQ ID NO: 10 (ssRNA)
RNA: GGGAACGAAGCGACAGACCGAAUCAGAAGUUCAACAUGGACAUAACAUCGAUGGGGUGUCAAGUACUGACGACAGA
modifications: 2'-F pyrimidines (U, C); purines 2'-OH
B12 was tested, and the IC50 [8] was 0.43 nM.

B13: SEQ ID NO: 3 (ssRNA)
RNA: GGGAGCAGGAGAGAGGUCAGAUGAUAACCAGUUGGGGGGUCAAUUACAUGGGACCUAUGCGUGCUAGUGUGA
modifications: 2'-F pyrimidines (U, C); purines 2'-OH
For B13, the IC50 [3] was 26 nM.

Source: US20210002644, “ANTI-CHYMASE APTAMER AND USE FOR SAME” (RIBOMIC INC., published 2021)
